Patent US20220202899A1, “COMPOSITION FOR PREVENTION OR TREATMENT OF HAIR LOSS INCLUDING HAPLN1” (HAPLNSCIENCE INC., priority 2019, published 2022)

Experiments:
[1] = test system: p-MEK1/2; experiment: p-MEK1/2 in human hair germinal matrix cells stimulated with TGF-β2 (Western blotting); assay type: cell-based; settings: HAPLN1 25 ng/mL and/or HA 25 μg/mL; TGF-β2 2 ng/mL, 1 hour
Procedure: (§1) Human hair germinal matrix cells were dispensed into a poly-D-lysine 6-well plate at a concentration of 5.0×10^4 per well and cultured for 24 hours. After 24 hours, the medium was removed and replaced with a new serum-free medium. HAPLN1 was treated with 25 ng/mL and HA with 25 μg/mL, incubated for 23 hours, and then stimulated with TGF-β2 (2 ng/mL) for 1 hour. After collecting cells, a lysis buffer (25 mM Tris-HCl, 1 mM EDTA, 0.1% Triton-X100, phosphatase inhibitor, and protease inhibitor) was added, and all the cells were broken through sonication. p-ERK1/2, p-Smad2, p-MEK1/2, and p-c-Raf in the sample were measured using Western blotting. Optical densities of p-ERK1/2, p-Smad2, p-MEK1/2, and p-c-Raf were compared to those of ERK1/2, Smad2/3, MEK1, and c-Raf using a densitometer. Here, ERK1/2, Smad2/3, MEK1, and c-Raf were used as loading controls.

[2] = test system: p-Smad2; experiment: p-Smad2 in human hair germinal matrix cells stimulated with TGF-β2 (Western blotting); assay type: cell-based; settings: HAPLN1 25 ng/mL and/or HA 25 μg/mL; TGF-β2 2 ng/mL, 1 hour
Procedure: as §1

[3] = test system: TβRII; experiment: TβRII protein after exogenous HAPLN1 and/or HA in endogenous HAPLN1-deficient human hair germinal matrix cells; assay type: cell-based; settings: after HAPLN1 siRNA; HAPLN1 25 ng/mL and/or HA 25 μg/mL; TGF-β2 2 ng/mL, 23 hours
Procedure: The human hair germinal matrix cells were dispensed into a poly-D-lysine 6-well plate at a concentration of 5.0×10^4 per well and cultured for 24 hours. After 24 hours, the medium was removed and replaced with a low-serum medium. HAPLN1 siRNA and scrambled siRNA were added at a concentration of 25 pmol per well and incubated for 24 hours. After the siRNA and the medium were all removed, the medium was replaced with a serum-free medium having HAPLN1 (25 ng/mL) or HA (25 μg/mL) added thereto, and cultured for 1 hour. TGF-β2 (2 ng/mL) was treated and incubated for 23 hours. After collecting cells, a lysis buffer (25 mM Tris-HCl, 1 mM EDTA, 0.1% Triton-X100, phosphatase inhibitor, and protease inhibitor) was added, and all the cells were broken through sonication. TβRII in the sample was measured using Western blotting. The optical density of TβRII was compared to that of GAPDH using a densitometer.

[4] = test system: HAS2; experiment: HAS2 protein in human hair germinal matrix cells deficient in endogenous HA (4-MU); assay type: cell-based; settings: 4-MU-treated cells; HAPLN1 25 ng/mL; TGF-β2 2 ng/mL
Procedure: 4-MU (4-methylumbelliferone) is an inhibitor of HA-producing hyaluronan synthase 2 (HAS2), which produces HA. In order to confirm the effect of HA produced in cells, HA production in cells was inhibited using 4-MU.
The human hair germinal matrix cells, in which the endogenous HA was inhibited by treating 4-MU, were dispensed into a poly-D-lysine 6-well plate at a concentration of 5.0×10^4 per well and cultured for 24 hours. After 24 hours, the medium was removed and replaced with a new serum-free medium. HAPLN1 was treated with 25 ng/mL, and after 1 hour, TGF-β2 (2 ng/mL) was treated. After 23 hours, cells were collected, a lysis buffer (25 mM Tris-HCl, 1 mM EDTA, 0.1% Triton-X100, phosphatase inhibitor, and protease inhibitor) was added, and all the cells were broken through sonication. HAS2 and TβRII in the sample were measured using Western blotting. The optical density of each of HAS2 and TβRII was compared to that of GAPDH using a densitometer.

[5] = test system: TβRII; experiment: TβRII protein in human hair germinal matrix cells treated with HAPLN1 by concentration (Western blotting); assay type: cell-based; settings: 20 ng/mL of HAPLN1, 24 hours, serum-free medium
Procedure: HAPLN1 was treated on human hair germinal matrix cells by concentration. Specifically, human hair germinal matrix cells (HHGMC) were dispensed into a poly-D-lysine 6-well plate at 5.0×10^4 per well and cultured for 24 hours. After 24 hours, the medium was removed and replaced with a new serum-free medium. HAPLN1 was treated with 0, 5, 10, 20 ng/mL and incubated for 24 hours. After collecting cells, a lysis buffer (25 mM Tris-HCl, 1 mM EDTA, 0.1% Triton-X100, phosphatase inhibitor, and protease inhibitor) was added, and all the cells were broken through sonication. TβRII in the sample was measured using Western blotting. The optical density of TβRII was compared to that of GAPDH using a densitometer (that is, TβRII optical concentration GAPDH optical concentration). Here, GAPDH was used as a loading control.

[6] = test system: hair growth cycle; experiment: Intraperitoneal systemic administration of HAPLN1, mouse hair growth; assay type: in vivo; settings: 20-month-old C57 mice; 0.1 mg/kg intraperitoneally once every 3 days
Procedure: HAPLN1 in the body decreases with age. HAPLN1 was administered to 20-month-old C57 mice with a decrease in HAPLN1 in the body.
Since C57 mice had different hair growth cycles, the cycles of all mice were uniformly adjusted through two hair growth cycles (see the schedule of FIG. 19). Thereafter, HAPLN1 was injected intraperitoneally at 0.1 mg/kg once every 3 days.

[7] = test system: p-ERK1/2; experiment: p-ERK1/2 in human hair germinal matrix cells stimulated with TGF-β2 (Western blotting); assay type: cell-based; settings: TGF-β2 2 ng/mL, 1 hour
Procedure: as §1

[8] = test system: p-c-Raf; experiment: p-c-Raf in human hair germinal matrix cells stimulated with TGF-β2 (Western blotting); assay type: cell-based; settings: HAPLN1 25 ng/mL and/or HA 25 μg/mL; TGF-β2 2 ng/mL, 1 hour
Procedure: as §1

[9] = test system: human dermal papilla cells; experiment: Dermal papilla cell proliferating effect, CCK-8 (Example 13); assay type: cell-based; settings: proteins 25 ng/ml, minoxidil 10 μM; TGF-β2 (2 ng/ml) present or absent
Procedure: Human dermal papilla cells were cultured in a 37° C., 5% CO2 incubator using a dermal papilla cell proliferation medium (Promocell). When the cells were about 90% full, the cells were detached with a 0.05% Trypsin/EDTA solution and then centrifuged at 1000 rpm for 3 minutes to recover only the cells. The cells were dispensed into a 96-well plate at 2.0×10^3 per well, cultured for 24 hours, and HAPLN1, CX3CL1 and CDON were diluted to have a final concentration of 25 ng/ml in serum-free medium. After removing the existing culture medium, 200 μl of diluted HAPLN1, CX3CL1, and CDON were dispensed into each well and cultured for 1 hour. To reduce an experimental variation, 3 wells per group were treated (triplication). In addition, minoxidil, which is known to proliferate dermal papilla cells, was treated with 10 μM and set as a positive control.
In the same manner as described above, HAPLN1 (25 ng/ml), CX3CL1 (25 ng/ml), CDON (25 ng/ml) or minoxidil (10 μM), and human recombinant TGF-β2 were diluted to a final concentration of 2 ng/ml, and the medium of the group containing TGF-β2 was replaced by 200 μl. To reduce an experimental variation, 3 wells per group were treated (triplication).
After incubation for 23 hours, the plate was removed from the incubator, and 20 μl of CCK-8 (WST-8) solution was added to the plate containing the medium and the reagent per 200 μl of the medium for the reaction to be carried out at 37° C. for 1 hour.

B1: hyaluronan and proteoglycan link protein 1 (protein, UniProt P10915 16-354, looked up)
Hyaluronan and proteoglycan …: DHLSDNYTLDHDRAIHIQAENGPHLLVEAEQAKVFSHRGGNVTLPCKFYRDPTAFGSGIHKIRIKWTKLTSDYLKEVDVFVSMGYHKKTYGGYQGRVFLKGGSDSDASLVITDLTLEDYGRYKCEVIEGLEDDTVVVALDLQGVVFPYFPRLGRYNLNFHEAQQACLDQDAVIASFDQLYDAWRGGLDWCNAGWLSDGSVQYPITKPREPCGGQNTVPGVRNYGFWDKDKSRYDVFCFTSNFNGRFYYLIHPTKLTYDEAVQACLNDGAQIAKVGQIFAAWKILGYDRCDAGWLADGSVRYPISRPRRRCSPTEAAVRFVGFPDKKHKLYGVYCFRAYN
notes: extracellular matrix protein found in cartilage; stabilizes aggregates of hyaluronic acid and proteoglycans
With B1 as the molecule, how does the “MEK1/2 activity (p-MEK1/2 compared to MEK1)” value [1] read?
Its value is “increased activities”.

And the “phosphorylation of Smad2” value [2]?
Its value is “no change”.

What about the “TβRII protein in endogenous HAPLN1-deficient cells” value [3] of the same molecule?
Its value is “recovered”.

And the HAS2 level [4]?
The HAS2 level was “recovered”.

What about the “TβRII protein (optical density compared to GAPDH)” value [5] of the same molecule?
The value was “increased”.

And the “entry into the anagen phase” value [6]?
The value was “entered the anagen phase in a short period of time”.

What about the “ERK1/2 signaling (p-ERK1/2 compared to ERK1/2)” value ([7]; HAPLN1 25 ng/mL and/or HA 25 μg/mL, 23 hours) of the same molecule?
The value was “activated”.

What about the “ERK1/2 signaling, HAPLN1 treated together with HA” value ([7]; HAPLN1 25 ng/mL with HA 25 μg/mL) of the same molecule?
Its value is “enhanced the activation of ERK1/2 signaling of HA”.

What about the “c-Raf activity (p-c-Raf compared to c-Raf)” value [8] of the same molecule?
Its value is “increased activities”.

And the “dermal papilla cell proliferation (absorbance at 450 nm)” value [9]?
The value was “did not proliferate dermal papilla cells or rather inhibited proliferation thereof”.
